From patent publication US20200199204A1

Legend:
Test in all cases: cell-based or functional assay
[1] = biological target: HIV-1 Env of Q769.d22 (HIV-1)
[2] = biological target: HIV-1 Env of CAP45.G3 (HIV-1)
[3] = biological target: HIV-1 Env of Q23.17 (HIV-1)
[4] = biological target: HIV-1 Env of MB201 (HIV-1)
[5] = biological target: HIV-1 Env of Q259.d2.17 (HIV-1)
[6] = biological target: HIV-1 Env of DU422.01 (HIV-1)
[7] = biological target: HIV-1 Env of TH976.17 (HIV-1)
[8] = biological target: HIV-1 Env of WITO.33 (HIV-1)
[9] = biological target: HIV-1 Env of BG505.w6m (HIV-1)
[10] = biological target: HIV-1 Env of QH0692.42 (HIV-1)
[11] = biological target: HIV-1 Env of 191821.E6.1 (HIV-1)
[12] = biological target: HIV-1 Env of AC10.29 (HIV-1)
[13] = biological target: HIV-1 Env of Q842.d12 (HIV-1)
[14] = biological target: HIV-1 Env of ZM197.7 (HIV-1)
[15] = biological target: HIV-1 Env of Q168.a2 (HIV-1)
[16] = biological target: HIV-1 Env of CAP210.E8 (HIV-1)
[17] = biological target: HIV-1 Env of CAP256.PI (HIV-1)
[18] = biological target: HIV-1 Env of UG037.8 (HIV-1)
[19] = biological target: HIV-1 Env of PVO.04 (HIV-1)
[20] = biological target: HIV-1 Env of C1080.c3 (HIV-1)
[21] = biological target: HIV-1 Env of MB539.2B7 (HIV-1)
[22] = biological target: HIV-1 Env of 3016.V5.c36 (HIV-1)
[23] = biological target: HIV-1 Env of TRJO.58 (HIV-1)
[24] = biological target: HIV-1 Env of ZM109.4 (HIV-1)
[25] = biological target: HIV-1 Env of REJO.67 (HIV-1)
[26] = biological target: HIV-1 Env of 96ZM651.02 (HIV-1)
[27] = biological target: HIV-1 Env of SC422.8 (HIV-1)
[28] = biological target: HIV-1 Env of CAP244.D3 (HIV-1)
[29] = biological target: HIV-1 Env of CNE3 (HIV-1)
[30] = biological target: HIV-1 Env of DU172.17 (HIV-1)
[31] = biological target: HIV-1 Env of CAP256.SU (HIV-1)
[32] = biological target: HIV-1 Env of CM244.ec1 (HIV-1)
[33] = biological target: HIV-1 Env of 0260.v5.c36 (HIV-1)
[34] = biological target: HIV-1 Env of TRO.11 (HIV-1)
[35] = biological target: HIV-1 Env of CAAN.A2 (HIV-1)
[36] = biological target: HIV-1 Env of KER2008.12 (HIV-1)
[37] = biological target: HIV-1 Env of ZM233.6 (HIV-1)
[38] = biological target: HIV-1 Env of 6535.3 (HIV-1)
[39] = biological target: HIV-1 Env of ZM53.12 (HIV-1)
[40] = biological target: HIV-1 Env of Q461.e2 (HIV-1)
[41] = biological target: HIV-1 Env of DU156.12 (HIV-1)
[42] = biological target: HIV-1 Env of 6405.v4.c34 (HIV-1)
[43] = biological target: HIV-1 Env of RHPA.7 (HIV-1)
[44] = biological target: HIV-1 Env of THRO.18 (HIV-1)
[45] = biological target: HIV-1 Env of ZM214.15 (HIV-1)
[46] = biological target: HIV-1 Env of ZM135.10a (HIV-1)
[47] = biological target: HIV-1 Env of ZM249.1 (HIV-1)
[48] = biological target: HIV-1 Env of KER2018.11 (HIV-1)
[49] = biological target: HIV-1 Env of RW020.2 (HIV-1)

CAP256-VRC26.19 (antibody)
IC50 [1]: > 50 µg/mL
IC50 [2]: > 50 µg/mL
IC50 [3]: 0.233 µg/mL
IC50 [4]: > 50 µg/mL
IC50 [5]: 2.16 µg/mL
IC50 [6]: 0.057 µg/mL
IC50 (neutralization, TZM-bl) [7]: > 50 µg/mL
IC50 [8]: > 50 µg/mL
IC50 [9]: 0.13 µg/mL
IC50 [10]: > 50 µg/mL
IC50 [11]: 29.2 µg/mL
IC50 [12]: 2.98 µg/mL
IC50 [13]: 0.16 µg/mL
IC50 [14]: 0.135 µg/mL
IC50 [15]: 7.04 µg/mL
IC50 [16]: 0.025 µg/mL
IC50 [17]: > 50 µg/mL
IC50 [18]: > 50 µg/mL
IC50 [19]: 1.1 µg/mL
IC50 [20]: 14.5 µg/mL
IC50 [21]: 0.431 µg/mL
IC50 [22]: 0.039 µg/mL
IC50 [23]: > 50 µg/mL
IC50 [24]: 2.82 µg/mL
IC50 [25]: > 50 µg/mL
IC50 [26]: > 50 µg/mL
IC50 [27]: > 50 µg/mL
IC50 [28]: > 50 µg/mL
IC50 (neutralization, TZM-bl) [29]: > 50 µg/mL
IC50 [30]: > 50 µg/mL
IC50 [31]: 15 ng/mL
IC50 [32]: 0.024 µg/mL
IC50 [33]: > 50 µg/mL
IC50 [34]: > 50 µg/mL
IC50 [35]: > 50 µg/mL
IC50 [36]: > 50 µg/mL
IC50 [37]: 0.009 µg/mL
IC50 [38]: > 50 µg/mL
IC50 [39]: 0.02 µg/mL
IC50 [40]: 15.6 µg/mL
IC50 [41]: 1.34 µg/mL
IC50 [42]: > 50 µg/mL
IC50 [43]: > 50 µg/mL
IC50 [44]: > 50 µg/mL
IC50 [45]: > 50 µg/mL
IC50 [46]: > 50 µg/mL
IC50 [47]: 0.076 µg/mL
IC50 [48]: 0.005 µg/mL
IC50 [49]: > 50 µg/mL

CAP256-VRC26.14 (antibody)
IC50 [1]: > 50 µg/mL
IC50 [2]: > 50 µg/mL
IC50 [3]: > 50 µg/mL
IC50 [4]: > 50 µg/mL
IC50 [5]: 2.13 µg/mL
IC50 [6]: 49 µg/mL
IC50 [7]: > 50 µg/mL
IC50 [8]: > 50 µg/mL
IC50 [9]: 0.75 µg/mL
IC50 [10]: > 50 µg/mL
IC50 [11]: 3.36 µg/mL
IC50 [12]: > 50 µg/mL
IC50 [13]: > 50 µg/mL
IC50 [14]: 4.96 µg/mL
IC50 [15]: > 50 µg/mL
IC50 [16]: 0.012 µg/mL
IC50 [17]: > 50 µg/mL
IC50 [18]: > 50 µg/mL
IC50 [19]: > 50 µg/mL
IC50 [20]: 0.779 µg/mL
IC50 [21]: > 50 µg/mL
IC50 [22]: 0.012 µg/mL
IC50 [23]: > 50 µg/mL
IC50 [24]: > 50 µg/mL
IC50 [25]: > 50 µg/mL
IC50 [26]: > 50 µg/mL
IC50 [27]: > 50 µg/mL
IC50 [28]: > 50 µg/mL
IC50 [29]: > 50 µg/mL
IC50 [30]: > 50 µg/mL
IC50 [31]: 4 ng/mL
IC50 [32]: 6.16 µg/mL
IC50 [33]: > 50 µg/mL
IC50 [34]: > 50 µg/mL
IC50 [35]: > 50 µg/mL
IC50 [36]: > 50 µg/mL
IC50 [37]: 0.028 µg/mL
IC50 [38]: > 50 µg/mL
IC50 [39]: 0.006 µg/mL
IC50 [40]: > 50 µg/mL
IC50 [41]: > 50 µg/mL
IC50 [42]: > 50 µg/mL
IC50 [43]: > 50 µg/mL
IC50 [44]: > 50 µg/mL
IC50 [45]: > 50 µg/mL
IC50 [46]: > 50 µg/mL
IC50 [47]: > 50 µg/mL
IC50 [48]: 0.03 µg/mL
IC50 [49]: > 50 µg/mL
